According to paper PMC13006735 (Research, 2026):
Where a chain is given by its changes, count along the chain named. Names may count otherwise.

B1: ADI-15946 (antibody, V domains shown)
VH: EVQLVESGGGLVKPGGSLRLSCAASGFTFSNAWMSWVRQAPGKGLEWVGRIKSKTDGGTIDYAAPVKGRFTISRDDSKNTVYLQMTSLKTEDTAVYYCTTYTEDMRYFDWLLRGGETFDYWGQGTLVTVSS
VL: DIRLTQSPSSLSASVGDRVTITCRASHYISTYLNWYQQKPGKAPKLLIYAASNLQSGVPSRFSGSGFGTDFSLTISSLQPEDFATYHCQQSYSTPGRYTFGQGTKVEIK
notes: also called wild-type ADI-15946; parental antibody
B2:  (antibody, V domains shown)
VH: B1 VH
VL: B1 VL with H27Q, S52Y, G66R
notes: also called H27Q/S52Y/G66R-LC variant
B3:  (antibody, V domains shown)
VH: B1 VH
VL: B1 VL with A50Y, S52Y, L54R
notes: also called A50Y/S52Y/L54R-LC variant

What was measured:
[1] = target: T1, Sudan virus (SUDV) glycoprotein GP (Sudan ebolavirus, strain  for …, UniProt Q7T9D9); assay: cell-based or functional assay
[2] = target: T1, Sudan virus (SUDV) glycoprotein GP; assay: SPR; conditions: both partners purified

Binder | IC50, neutralisation of SUDV GP pseudovirus (luciferase, Huh7 cells) [1] [µg/mL] | Kd [2] [nM]
B1 | 9.16 | 2.24
B2 | 0.08 | 
B3 | 0.22 | 
